Measurements published in article PMC5570508, “Structural analysis of P. falciparum KAHRP and PfEMP1 complexes with host erythrocyte spectrin suggests a model for cytoadherent knob protrusions” (PLoS Pathogens, 2017).

T1: spectrin β chain domains 10–14 (human, UniProt P11277 1272-1804)
T1 construct: human erythrocyte β spectrin, UniProt P11277, residues 1272-1804; also called β10–14; source: E. coli Rosetta2(DE3), purified (Talon, Q-Sepharose, Superdex 75 or 200); not shown: His10 or His6 (modified pET16b or pET15b), N-terminal, cleaved
T1 sequence (looked up): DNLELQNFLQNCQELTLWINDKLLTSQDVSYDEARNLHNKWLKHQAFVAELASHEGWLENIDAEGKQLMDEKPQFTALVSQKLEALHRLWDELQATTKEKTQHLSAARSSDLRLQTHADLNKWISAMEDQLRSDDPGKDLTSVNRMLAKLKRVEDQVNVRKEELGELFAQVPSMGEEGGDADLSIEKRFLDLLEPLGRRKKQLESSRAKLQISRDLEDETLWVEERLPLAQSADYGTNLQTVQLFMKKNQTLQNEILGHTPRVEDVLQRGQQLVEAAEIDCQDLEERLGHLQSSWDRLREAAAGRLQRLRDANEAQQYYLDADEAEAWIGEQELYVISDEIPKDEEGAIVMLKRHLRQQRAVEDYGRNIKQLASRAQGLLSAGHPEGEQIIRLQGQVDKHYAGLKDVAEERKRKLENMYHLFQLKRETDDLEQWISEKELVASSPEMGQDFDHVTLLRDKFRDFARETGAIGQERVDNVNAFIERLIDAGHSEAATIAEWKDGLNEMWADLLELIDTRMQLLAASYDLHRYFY

B1: KAHRP 5´-repeat scrambled sequence, Scramble 2 (peptide)
chain: CEKSDDKKESKSKHDGSVKKKSEEKKKDNESSTKSDGKNKKNKKHNEHESKHEHKGEGKKKEHGSNEDHKKKNDNEVKGKHKKSPKKKAETKKNSSHDSDKKEKDSSKKVHNEAK
modifications: 5-carboxyfluorescein (5-FAM) on a single cysteine at the protein N-terminus
notes: amino acid content of the KAHRP 5´ repeat, randomly scrambled; also called scrambled peptide; source: E. coli, recombinant, purified as the KAHRP fragments; not shown: His10, N-terminal, cleaved
B2: KAHRP 5´-repeat scrambled sequence, Scramble 3 (peptide)
chain: CHDNKGKKSHDSSGDKKHKNKKSKKKKESPTVDKKEKHEVKKKHKNKKDDVHSEEASKEENKKTEKGKNEKESNAKKSKNSHHDSKKGKEHEGSSKNKDHDKKEKNSDESKKGES
modifications: 5-carboxyfluorescein (5-FAM) on a single cysteine at the protein N-terminus
notes: as for B1
B3: KAHRP 5´-repeat scrambled sequence, Scramble 4 (peptide)
chain: CESNKKNGHEKGGKKSESKHKKKDHAEKEPKNKKGAHHDDSDKSKTKHNSESDEKVHKSESKEKSKDKVGNKGKEKKVSNSEKKDKNKKDHSHSKETKEKDEKDKKHKSSNKENK
modifications: 5-carboxyfluorescein (5-FAM) on a single cysteine at the protein N-terminus
notes: as for B1
B4: KAHRP 5´-repeat scrambled sequence, Scramble 1 (peptide)
chain: CGGSDNSEKNKKEHKKEKSAHEKEKDKKAEHKKDKDGSKKSSEKKKNSTKEHESSEHNHSEHKKSDNHKKKKENKEDDSEKEKNKKSDVVSDNKKTHKKGGKKKSKPKGNKSVHD
modifications: 5-carboxyfluorescein (5-FAM) on a single cysteine at the protein N-terminus
notes: as for B1

What follows are binders tested against T1, spectrin β chain domains 10–14 (assay: fluorescence polarisation; titration: 5-FAM-labeled protein at 0.5 or 1 μM titrated with unlabeled protein; 20°C; analysis buffer (20 mM NaH2PO4, 50 mM NaCl, 1 mM DTT pH 7); single site binding model). Conditions: both partners purified.

Binder | binding result
B1 | binds
B2 | binds
B3 | binds
B4 | binds
